Laboratory results taken from US12692310B2, “ASIC1 channel antagonist antibody” (ShanghaiTech University, priority 2019, dated 2026).
Like-named read-outs stand apart in the source and are kept apart here. No end group written: not given here.

T1: hASIC1a (Homo sapiens, UniProt P78348)
T1 construct: expressed in transfected cells
T1 sequence (P78348 1-528): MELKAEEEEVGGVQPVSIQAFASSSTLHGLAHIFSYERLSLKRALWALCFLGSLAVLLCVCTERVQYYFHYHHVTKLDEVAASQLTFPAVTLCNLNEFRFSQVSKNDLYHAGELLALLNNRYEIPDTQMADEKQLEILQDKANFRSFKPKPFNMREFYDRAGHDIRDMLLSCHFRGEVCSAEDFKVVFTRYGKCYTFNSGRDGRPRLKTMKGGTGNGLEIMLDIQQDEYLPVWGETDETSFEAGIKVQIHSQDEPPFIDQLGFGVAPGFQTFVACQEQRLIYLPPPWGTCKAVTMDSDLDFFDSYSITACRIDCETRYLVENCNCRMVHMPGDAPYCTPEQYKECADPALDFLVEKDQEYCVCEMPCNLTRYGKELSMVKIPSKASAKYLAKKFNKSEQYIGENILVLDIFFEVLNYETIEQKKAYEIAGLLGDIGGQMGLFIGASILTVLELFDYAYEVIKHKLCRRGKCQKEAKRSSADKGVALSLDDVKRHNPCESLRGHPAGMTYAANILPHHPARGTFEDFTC

T2: hASIC1a-eYFP (human, UniProt P78348 1-528)
T2 construct: whole, on cells; On CHO-K1 cells, stably (6H7) or transiently transfected; also called full-length hASIC1a (1-528 amino acids) fused with eYFP; CHO-K1/hASIC1a cells; not shown: C-terminal eYFP fusion
T2 sequence (looked up): T1 sequence (P78348 1-528)

B1: ASC03 (scFv, V domains shown)
VH: QVQLVESGAEVKKPGSSVKVSCKASGGNFRKYSISWVRQAPGQGLEWMGWISAYNGNTNYAQKLQGRVTMTTDTSTSTAYMELRSLRSDDTAVYYCARDFDPYYDAFDIWGQGTTVTVSS
VL: QSALTQPASVSGSPGQSITISCTGTSSDVGAYNYVSWYQQHPGKAPKLMIYDVSNRLSGVSNRFSGSKSGNRASLTISGLQAEDEADYYCSSYRSGNSLAFGGGTKLTVLG
notes: also called ASC03 scFv; ASC03 (scFv format)
B2: ASC04 (scFv, V domains shown)
VH: QVQLVQSGAEVKKPGSSVKVSCKASGGTFSTYAINWVRQAPGQGLEWMGWMNPNSGNTGYAQKFQGRVTMTRNTSISTAYMELSSLRSEDTAVYYCARYSYGMDVWGQGTTVTVSS
VL: QAVLTQPSSLSASPGASVSLTCTLRSGINVGAYRIYWYQQKPGSPPQFLLRYKSDSDKQQGSGVPSRFSGSRDASANAGILLISGLRSEDEADYYCAIWHSSAWVFGGGTKLTVLG
notes: also called ASC04 scFv; ASC04 (scFv format)
B3: venom peptide PcTx1 fused with Fc (PcTx1-Fc) (Fc fusion)
chain: EDCIPKWKGCVNRHGDCCEGLECWKRRRSFEVCVPKTPKT
modifications: ends and bridges not checked; also: fused with Fc, isotype, linker and order not given here
B4: ASC02 (scFv, V domains shown)
VH: QVQLVQSGAEVKKPGASMKVSCTTSGYTVTGYYIHWLRQAPGQGFEWMGWINPNLGVTNYAQKFQGRVSMTRDPSIKTAYLELSGLRSDDTAMYYCARASTGGIFYDYWGQGTLVTVSS
VL: NFMLTQPHSMSESPGKTVTISCTRSSGNIASNYVQWYQQRPGSSPTTVIYDDNQRPSGVPDRFSGSIDSISNSASLTISGLKTEDEADYYCQSYDSSSVIFGGGTKLTVLG
notes: also called ASC02 scFv; ASC02 (scFv format)

Experiments:
[1] = test system: MCAO-induced ischemic stroke model mice; experiment: Middle cerebral artery occlusion (MCAO)-induced ischemic stroke model; assay type: in vivo, mouse; conditions: 4 μL i.c.v. 3 h after ischemia; 100 nM PcTx1 or 3.0 μg/μL ASC06-IgG1; 24 h after injection
Description: The Middle Cerebral Artery Occlusion (MCAO) Model. Animal care and the experimental protocols were approved by the Animal Ethics Committee of Shanghai Jiao Tong University School of Medicine, Shanghai, China. A transient ischemic stroke in the left brain hemisphere was established in male mice (C57 BL/6, 20-25 g) using middle cerebral artery occlusion (MCAO) for 1 h before reperfusion. Three hours after ischemia, a total of 4 μL of vehicle solution (PBS) in the absence or presence of neuroprotective agents) 100 nM PcTx1 or 3.0 μg/μL endotoxin-free ASC06-IgG1 ([…])) was administered by an intracerebroventricular (i.c.v.) injection on the contralateral side of the brain hemisphere. An irrelevant endotoxin-free antibody (3.0 μg/μL, […]) was used as isotype control. […] Mice were sacrificed 24 h after the i.c.v. injection. […] The infarct area was calculated by subtracting the normal area stained with TTC in the ischemic hemisphere from that of the nonischemic hemisphere. The infarct volume was calculated by summing infarction areas of all sections and multiplying by slice thickness.
To determine if the protective effect of antibody ASC06-IgG1 in vitro could be extended to pathologies in vivo, the middle cerebral artery occlusion (MCAO) model was used to study the antibody's neuroprotective effect. […] The infarct volume of the cortex and striatum were calculated 24 hours after the injection. […]

hASIC1a = biological target: T1, hASIC1a; experiment: Whole-cell patch clamp, acid-induced hASIC1a currents in stable CHO-K1 cells; assay type: cell-based
Description: Electrophysiological Experiments. The inward cellular ASIC1a current was recorded from a single cell using standard whole-cell recording techniques by a patch-clamp amplifier (Axon 200B; Axon Instruments). Membrane currents were sampled and analyzed using a Digidata 1320A interface and a personal computer with Clampex and Clampfit software (Version 9.0.1; Axon Instruments). For a typical experiment, the extracellular fluid (ECF) used contained 150 mM NaCl, 5 mM KCl, 10 mM HEPES, 10 mM D-glucose, 2 mM CaCl2, and 1.0 mM MgCl2, with the osmotic pressure in the range of 320-335 mOsm, and pH 7.4 adjusted with 5 M NaOH. Patch electrodes (4-6 MΩ) contained 30 mM NaCl, 120 mM KCl, 0.5 mM CaCl2, 1 mM MgCl2, 10 mM HEPES, 2 mM MgATP, and 5 mM EGTA (pH 7.2 adjusted with 5 M KOH) at 300 mOsm. The ASIC1a activating ECF is identical to the normal ECF, except that MES was used to replace HEPES to maintain the ECF at pH 6.0. A coverslip with discretely distributed individual CHO-ASIC1a stable cells (6H7) on the surface was placed into a recording chamber under a constant perfusion (~2-3 mL/min) generated by an ALA 8 channel perfusion system (ALA Scientific Instruments Inc.) mounted on an inverted microscope. After achieving the break-in (whole-cell) configuration, the cell was voltage clamped at a holding potential of −70 mV. The normal ECF (pH 7.4) was first perfused onto the patched cell, and then, the activating ECF of pH 6.0 was rapidly applied to elicit a maximum inward ASIC1a current as control current. When testing the inhibition effect of the antibody, ECFs of pH 7.4 containing different concentrations of ASC06-IgG1 were perfused from low to high concentration into the recording chamber for 10-15 min. To measure the inhibition of the current, the activating ECFs of pH 6.0 containing the corresponding concentrations of the testing antibodies were applied to the same patched 6H7 cell to generate the inward currents that can be normalized to the control current of the same cell. […] Data acquired from four to five cells were used for statistical calculation of inhibition effects.
The function of ASC06-IgG1 was characterized using electrophysiology approach. The effect of ASC06-IgG1 antibody on the acid-induced, hASIC1a-mediated electrical current in cells was analyzed. PcTx1 was used as a positive control. […] The amplitudes of the hASIC1a-mediated inward currents of the stable cells were recorded and quantitated in the absence and presence of ASC06-IgG1, with venom peptide PcTx1 (100 nM) used as positive control. […] Unlike the sustained inhibition with the antibody after washing, the inhibition with PcTx1 could be readily washed out within 5 minutes (FIG. 5C).

hASIC1a-eYFP = biological target: T2, hASIC1a-eYFP; experiment: immunocytochemistry, confocal microscopy, CHO-K1 cells expressing hASIC1a-eYFP
[2] = biological target: truncated hASIC1a (amino acids 13-464) (human) (UniProt P78348); experiment: Octet, scFv format, ΔhASIC1a nanodiscs
[3] = biological target: truncated hASIC1a (amino acids 13-464) (human) (UniProt P78348); experiment: Octet, scFv format at 500 nM, ΔhASIC1a nanodiscs
[4] = biological target: truncated hASIC1a (amino acids 13-464) (human) (UniProt P78348)

| Molecule | infarct volume (compared with the contralateral brain region) [1] | inhibition of the acid-induced current, in words (hASIC1a; 100 nM, positive control) | time for inhibition to be washed out (hASIC1a; washout experiment) [min] | binding result (hASIC1a-eYFP) | Kd [2] [nM] | Response [3] | Kd [4] [nM] |
| --- | --- | --- | --- | --- | --- | --- | --- |
| Psalmotoxin-1 [PcTx1, reference compound] | about 17% | nearly complete inhibition | ≤ 5 | – | – | – | – |
| B1 | – | – | – | binds | 259 | 0.269 | – |
| B2 | – | – | – | binds | 20.8 | 0.995 | – |
| B3 | – | – | – | – | – | – | 1 |
| B4 | – | – | – | binds | 262 | 0.289 | – |
